CN111320686A
Where “and” joins values, the source holds several entries; their conditions need not be identical. Equal entries are not always repeated.

Experiments:
[1] = biological target: H7N9病毒的HA蛋白(购自ACROBiosystems) (H7N9 influenza virus)
[2] = biological target: H7N9病毒的HA蛋白(购自ACROBiosystems) (H7N9 influenza virus); remark: listed apart in the source
[3] = biological target: H7N9病毒 A/Anhui/1/2013 的血凝素HA (on live virus) (H7N9 influenza virus A/Anhui/1/2013); assay: cell-based or functional assay

B1: 抗H7N9全人源单克隆抗体2G3 (antibody, V domains shown)
VH: QVQLVESGAEVKKPGASVKVSCKASGYIFTSYEINWVRQATGQGLEWMGWMNPESGETGFAQKFQGRVTMTRNTSITTAYMELSSLTSEDTAVYYCATGNAECSGGSCYNWFEPWGQGTLVTVSS
VL: SSELTQDPAVSVALGQTVRITCQGDKLKSYYASWYQQKPGQAPVLVIYGRNNRPSGIPDRFSGSSSGNTASLTITGAQAEDEADYYCNSKETSGYHLVFGGGTKLTVLV
- 450nm (OD) [1]: 1.6 OD 450nm and 2 OD 450nm and 1.78 OD 450nm
- Kd [2]: 2.3 nM
- 微量中和-ELISA (MDCK细胞, 100TCID50 病毒) IC50 [3]: 0.0711 µg/mL
